In publication PMC12399007:

Key:
[1] = target: F-actin (rabbit skeletal muscle actin, polymerized) (rabbit) (UniProt P68135); assay: co-sedimentation; high-speed centrifugation (HSC, 1 h, 40,000 rpm, 20 °C); 3.0 µM F-actin pre-incubated with 0.3 µM fascin for 20 min, titrated with Tpm2 isoforms 0-3.0 µM; 5 mM Tris, 100 mM NaCl, 2 mM MgCl2, 1 mM DTT, pH 7.5; Hill fit, apparent Kapp; fascin band in the pellets also quantified
[2] = target: F-actin saturated with Tpm2.1 (rabbit | human) (UniProt P68135); assay: co-sedimentation; high-speed centrifugation (HSC); 3.0 µM F-actin, alone or pre-incubated 15 min with 2.0 µM Tpm2 isoform, incubated with fascin 0-1.1 µM for 1 h at RT; 5 mM Tris-HCl, 100 mM NaCl, 2 mM MgCl2, 1 mM DTT, pH 7.5; Hill fit, apparent Kapp
[3] = target: F-actin (rabbit skeletal muscle actin, polymerized) (rabbit) (UniProt P68135); assay: as above

Row | Substance | percent reduction of fascin bound to F-actin [1] | Ka [2] | Ka [3]
1 | Tpm2.4, recombinant N-terminally acetylated human tropomyosin isoform encoded by TPM2 (natural protein) | 30% |  | 
2 | recombinant mouse fascin-1 with GPLGS N-terminal extension (GST tag cleaved) (natural protein) |  | 8e+06 M⁻¹ | 1.15e+07 M⁻¹
